Target: Glut1 (UniProt P11166)
Assay: Flag IP, HA-TXNIP blot
Conditions: reference: HA-TXNIP wild type, 2DG-treated cells; sites S308

binding against the reference: stronger
Substance: TXNIP (from UniProt Q9H3M7) HA-TXNIP S308A, 2DG-treated cells

Reference: article PMC3615143
